The supplement of paper PMC9942255
Values joined by “and” are separate entries in the source; they are usually repeats but may differ in a detail not shown here. Equal values may be shown once.

System: Bacillus subtilis DB104 (SP-AmyQ fusion secretion)
Experiment: AmyQ secretion efficiency, weighted average sort bin (1 = best secretion, 10 = worst) (bin number (weighted average, 1-10)); higher = lower secretion efficiency
How it was run: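 The secretion score gives the average bin number weighted by read frequency and normalised to beads per bin, with low-abundance sequences excluded. Bins were 10 equally populated green/red fluorescence ratio fractions of occupied ~65 nL alginate beads, sorted by large-particle flow cytometry. The beads held fluorescein-starch and about 0.3 cells each of an amyE-integrated B. subtilis DB104 library fusing designed signal peptides to mature AmyQ, and they were grown about 13 h at room temperature and stained with nile red before sorting and Illumina sequencing.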

Row | Sequence | AmyQ secretion efficiency
1 | MKKLLAAGIIGLSIASPSFAAEK | 4.78
2 | MKKLLALLAVVAFAFTDSSKAKAAEA | 2.03
3 | MKKLLSAASLAFFAMSGSAQAAAY | 2.96
4 | MKKLLSTAAGLLLSLTATSVSAHYV | 4.36
5 | MKKLRKKKIIGLLTVSIASPSFAAEK | 7.35
6 | MKKLRKKKKKGLLTVSIASPSFAAEK | 7.52
7 | MKKLSLGVASAALGLALVGGGTWAAFN | 6
8 | MKKLSVAVAASFMSLSISLPGVQAAEG | 1.57
9 | MKKLTLAFLVFLSVVLVTTVFLVKQQESVAQAKQL | 3.11
10 | MKKLVLCVSILAVILKRKRKKALTQLS | 6.12
11 | MKKLVLCVSILAVILRKKALTQLS | 7.41
12 | MKKLVLCVSILAVILSGVALTDED | 6.4
13 | MKKLVLCVSILAVILSGVALTQLS | 5.95 and 6.59 and 6.66
14 | MKKLVLCVSILAVILSGVALVQLS | 5.7
15 | MKKLVLCVSILAVILSGVALYQLS | 4.11
16 | MKKLVLCVSILAVILSGVGLTQLS | 5.94
17 | MKKLVLCVSILAVILSGVLLTQLS | 5.53
18 | MKKLVLCVSILAVILSGVMLTQLS | 6.44
19 | MKKLVLCVSILAVILSGVQLTQLS | 5.61
20 | MKKLVLCVSILAVILSGVTVALTQLS | 3.8
21 | MKKLVLCVSILAVILSGVVLTQLS | 5.78
22 | MKKLVLCVSILAVILSGVWLTQLS | 5.87

Row | Sequence | AmyQ secretion efficiency
23 | MKKLVLCVSILAVILSGVYLTQLS | 5.92
24 | MKKMKKSGKRFLLALTIHVGEASAVIV | 6.51
25 | MKKMLGKLLITAGILVFFAVVVKDVFAAGL | 7.15
26 | MKKMLGKLLITAGILVFFAVVVKDVFSAGL | 3.11
27 | MKKMLGKSGKQTTTGVFFAVVVKDVFAAGL | 6.37
28 | MKKMLGKSRYGAGILVFFAVVVKDVFAAGL | 4.68
29 | MKKMLMLAFTFLLALTIHVGEASAVRK | 2.01
30 | MKKMNFSSNSIIVMLATALFLGLTPAGANAADL | 4.32
31 | MKKMSNSTNSMSVLMAFIICLSLILSVLAAPPSGAKAESV | 1.73
32 | MKKQIITATTAVVGAASAQSI | 7.59
33 | MKKQIITATTAVVLGSTGAASAQSI | 4.95
34 | MKKQIITATTAVVLGSTLFAAASSTGAASAQSI | 3.24
35 | MKKQIITATTAVVLGSTLFADDEASAQSI | 2.17
36 | MKKQIITATTAVVLGSTLFAEDDDDEASAQSI | 3.86
37 | MKKQIITATTAVVLGSTLFAGAAAVASAQSI | 3.9
38 | MKKQIITATTAVVLGSTLFAGAASAEEE | 2.04
39 | MKKQIITATTAVVLGSTLFAGAASAKRK | 2.25
40 | MKKQIITATTAVVLGSTLFAGAASAQKR | 2.23
41 | MKKQIITATTAVVLGSTLFAGAASAQSD | 2.54
42 | MKKQIITATTAVVLGSTLFAGAASGQSI | 2.03
43 | MKKQIITATTAVVLGSTLFAGAASIQSI | 5.61
44 | MKKQIITATTAVVLGSTLFAGAASMQSI | 3.83

Row | Sequence | AmyQ secretion efficiency
45 | MKKQIITATTAVVLGSTLFAGAASSQSI | 1.97
46 | MKKQIITATTAVVLGSTLFAGAASTQSI | 2.06
47 | MKKQIITATTAVVLGSTLFAGAASYQSI | 6.33
48 | MKKQIITATTAVVLGSTLFAGACSAQSI | 2.49
49 | MKKQIITATTAVVLGSTLFAGADSAQSI | 3.56
50 | MKKQIITATTAVVLGSTLFAGAGSAQSI | 1.62
51 | MKKQIITATTAVVLGSTLFAGAKSAQSI | 3.92
52 | MKKQIITATTAVVLGSTLFAGALSAQSI | 2.54
53 | MKKQIITATTAVVLGSTLFAGAMSAQSI | 1.54
54 | MKKQIITATTAVVLGSTLFAGANSAQSI | 3.08
55 | MKKQIITATTAVVLGSTLFAGAPPATASVPVVGASAQSI | 2.17
56 | MKKQIITATTAVVLGSTLFAGAPSAQSI | 3.52
57 | MKKQIITATTAVVLGSTLFAGAQSAQSI | 4.07
58 | MKKQIITATTAVVLGSTLFAGARSAQSI | 3.67
59 | MKKQIITATTAVVLGSTLFAGASSAQSI | 2.25
60 | MKKQIITATTAVVLGSTLFAGATGFAFAPASAQSI | 3.63
61 | MKKQIITATTAVVLGSTLFAGATSAQSI | 1.92
62 | MKKQIITATTAVVLGSTLFAGAVSAQSI | 1.69
63 | MKKQIITATTAVVLGSTLFAGAYSAQSI | 5.58
64 | MKKQIITATTAVVLGSTLFAKKASAQSI | 6.18
65 | MKKQIITATTAVVLGSTLFAKKRASAQSI | 7.26
66 | MKKQIITATTAVVLGSTLFARKKRKKASAQSI | 7.27

Row | Sequence | AmyQ secretion efficiency
67 | MKKQIITATTAVVLGSTLFASPASAQSI | 1.55
68 | MKKQIITATTAVVLGSTLFAVGAASAQSI | 2.23
69 | MKKQIKKKKTAVVLGSTLFAGAASAQSI | 7.3
70 | MKKQIKKKRKKVVLGSTLFAGAASAQSI | 7.55
71 | MKKQKKIAGVLTVAAAAMTAKMYATAKGN | 7.17
72 | MKKQQYGQSKKVVLGSTLFAGAASAQSI | 7.51
73 | MKKQRKIITATTAVVLGSTLFAGAASAQSI | 1.81
74 | MKKQSMALVILGALGTSYISADSS | 5.2
75 | MKKQSYSATTAVVLGSTLFAGAASAQSI | 5.86
76 | MKKQTTIINNSTIITATTAVVLGSTLFAGAASAQSI | 3.18
77 | MKKQWIGMLAAAVLLLMVPKVSLADAA | 2.86
78 | MKKRFFGPIILAFAGAIAIPS | 9.34
79 | MKKRFFGPIILAFILFAAIAIPS | 6.38
80 | MKKRFFGPIILAFILFAGAIAIEE | 6.41
81 | MKKRFFGPIILAFILFAGAIAKKK | 7.24
82 | MKKRFFGPIILAFILFAGAIDIPS | 6.03
83 | MKKRFFGPIILAFILFAGAIEIPS | 5.48
84 | MKKRFFGPIILAFILFAGAIHIPS | 5.21
85 | MKKRFFGPIILAFILFAGAIKIPS | 5.25
86 | MKKRFFGPIILAFILFAGAIVIPS | 5.76
87 | MKKRFFGPIILAFILFAGLIAIPS | 5.16
88 | MKKRFFGPIILAFILFAGTASAIAIPS | 5.82

Row | Sequence | AmyQ secretion efficiency
89 | MKKRFFGPIILAFILFAGVIAIPS | 6.86
90 | MKKRFFGPIILAFILFLFSSLAGAIAIPS | 6.16
91 | MKKRFFGPIILAFILFRRRAIAIPS | 7.49
92 | MKKRFFGPIILAFILFTASTAFTAIAGAIAIPS | 4.73
93 | MKKRFRRRKKRAFILFAGAIAIPS | 6.13
94 | MKKRFSGQMMTGLLFGLTSPAFAAEK | 6.38
95 | MKKRFSLIMMFILLFMLMSPAFAAEK | 3.79
96 | MKKRFSLIMMTGLLFGLTEEEAFAAEK | 2.39
97 | MKKRFSLIMMTGLLFGLTKKRAFAAEK | 6.54
98 | MKKRFSLIMMTGLLFGLTKRKKKKAFAAEK | 7.34
99 | MKKRFSLIMMTGLLFGLTSPAFAADE | 3.46
100 | MKKRFSLIMMTGLLFGLTSPAFAAPE | 3.06
101 | MKKRFSLIMMTGLLFGLTSPAFAAPK | 1.77
102 | MKKRFSLIMMTGLLFGLTSPAFAASN | 2.36
103 | MKKRFSLIMMTGLLFGLTSPAFARKK | 7.01
104 | MKKRFSLIMMTGLLFGLTSPDEKAFAAEK | 2.56
105 | MKKRFSLIMMTGLLFGLTSPTFAAEK | 3.56
106 | MKKRFSLKKRRGLLFGLTSPAFAAEK | 8.62
107 | MKKRFSLRRRKRKLFGLTSPAFAAEK | 7.37
108 | MKKRINLIGFLVLVPALIMSGITLIEANKK | 7.4
109 | MKKRITLLALLAVVAFAFTDSSKAKAAEA | 3.06
110 | MKKRITYSFTMMLLALLAVVAFAFTDSSKAKAAEA | 1.93

Row | Sequence | AmyQ secretion efficiency
111 | MKKRITYSGSQLLAVVAFAFTDSSKAKAAEA | 8.92
112 | MKKRITYSLLALLAVVAFAFFISSKAKAAEA | 5.19
113 | MKKRITYSLLALLAVVAFAFFSIAGAKAAEA | 4.27
114 | MKKRITYSLLALLAVVAFAFLTDSSKAKAAEA | 3.06
115 | MKKRITYSLLALLAVVAFAFTDSSAAKAAEA | 2.68
116 | MKKRITYSLLALLAVVAFAFTDSSKAKAAEE | 2.71
117 | MKKRITYSLLALLAVVAFAFTDSSKAKAASA | 2.18
118 | MKKRITYSLLALLAVVAFAFTDSSKAKKAEA | 4.79
119 | MKKRITYSLLALLAVVAFAFTDSSKSKAAEA | 3.09
120 | MKKRITYSLLALLAVVAFAFTDSSKTKAAEA | 4
121 | MKKRITYSLLALLAVVAFAFTRSSKAKAAEA | 3.67
122 | MKKRITYSLLALLAVVATDSSKAKAAEA | 2.87
123 | MKKRITYSLRRLLAVVAFAFTDSSKAKAAEA | 5.28
124 | MKKRITYSTSYQQTRVAFAFTDSSKAKAAEA | 6.55
125 | MKKRKCLLFLTTIALILSLSTNAFAKNT | 1.8
126 | MKKRKITIAMLILAGIALFVFISPLKSHKT | 6.94
127 | MKKRKKKFFGPIILAFILFAGAIAIPS | 6.45
128 | MKKRKKKSLLALLAVVAFAFTDSSKAKAAEA | 2.95
129 | MKKRKKKVSSLFISSAVLLSILLPSGQAHAQSA | 1.03
130 | MKKRKQRPRLLSAASLAFFAMSGSAQAAAY | 6.55
131 | MKKRKRKILLSSALSFGMLISAVPALAAGT | 3.32
132 | MKKRKRKTLVVLFTIVTFGLVSPPAALMADKP | 2.34
